One series concerns the target T1, hGIPR (Homo sapiens, UniProt P48546).
T1 construct: expressed in transfected cells; host or cells: CHO CRE-luciferase reporter cells
T1 sequence (P48546 22-466): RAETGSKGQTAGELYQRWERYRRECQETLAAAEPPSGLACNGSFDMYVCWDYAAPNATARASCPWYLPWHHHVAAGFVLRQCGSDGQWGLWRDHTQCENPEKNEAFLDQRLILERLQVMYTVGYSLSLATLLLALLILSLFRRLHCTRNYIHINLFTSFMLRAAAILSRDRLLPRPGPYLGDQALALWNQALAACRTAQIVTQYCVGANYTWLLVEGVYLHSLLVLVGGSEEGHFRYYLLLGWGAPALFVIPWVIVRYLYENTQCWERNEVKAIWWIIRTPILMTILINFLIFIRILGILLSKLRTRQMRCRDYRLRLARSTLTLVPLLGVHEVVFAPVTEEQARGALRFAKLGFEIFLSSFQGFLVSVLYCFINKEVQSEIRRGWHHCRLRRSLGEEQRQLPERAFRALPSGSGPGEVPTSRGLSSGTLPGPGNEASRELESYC
Kind of series: hGIPR CreLuc assay in 0.5% and 100% plasma (CHO CRE-luciferase reporter cells). It counts as cell-based. The settings on record: 0.5% human plasma, read-out: hGIPR 0.5% hP.

Another series concerns the target T2, hNPY2R (Homo sapiens, UniProt P49146).
T2 construct: expressed in transfected cells; host or cells: HEK-293 CRE-luciferase reporter cells
T2 sequence (P49146 1-381): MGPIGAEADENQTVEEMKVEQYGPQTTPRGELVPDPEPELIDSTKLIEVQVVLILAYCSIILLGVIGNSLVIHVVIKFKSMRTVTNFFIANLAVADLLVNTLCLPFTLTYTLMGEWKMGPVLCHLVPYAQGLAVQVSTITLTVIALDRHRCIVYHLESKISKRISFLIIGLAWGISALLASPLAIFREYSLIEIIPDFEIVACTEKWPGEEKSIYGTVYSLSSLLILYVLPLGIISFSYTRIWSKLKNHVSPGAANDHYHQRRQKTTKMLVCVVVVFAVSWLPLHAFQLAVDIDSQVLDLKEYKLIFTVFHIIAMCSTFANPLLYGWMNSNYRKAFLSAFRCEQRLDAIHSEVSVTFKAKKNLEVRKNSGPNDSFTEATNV
Kind of series: hNPY2R CreLuc assay in 0.5% and 100% plasma (HEK-293 CRE-luciferase reporter cells). It counts as cell-based. The following applies: HEK-293 reporter cells. The text has this:
CHO and HEK-293 recombinant cell lines express a luciferase reporter gene under control of the CAMP responsive element (CRE). As a second recombinant protein the GLP-1 and NPY2 receptors were expressed in the reporter gene HEK cells, and the GIP receptor was expressed in the reporter gene CHO cells, respectively. Stimulation of these recombinant cells with an agonist leads to an increase of intracellular CAMP levels. In the presence of CAMP, the transcription factor CRE binding protein (CREB) binds to the CRE and to the CREB binding protein (CBP), which leads to transcription of the luciferase reporter gene. Peptides upon serial-dilution in 100% DMSO were transferred into 384-well assay plates with 5 μl pre-dispensed assay buffer (1×HBSS, 20 mM HEPES, pH7.4 supplemented with 0.5% human plasma) using acoustic dispensing on a Labcyte ECHO. Cryo-preserved transgenic reporter gene cells were thawed in assay buffer. 20 μl (10.000 cells/well) were added to the plate with the peptides and incubated for 4 hours at 37° C. in a humidified incubator. Following incubation, assay plates are equilibrated to room temperature, followed by addition of 25 μl of Bright-Glo™ Luciferase reagent, incubation at room temperature for 10 minutes and analysis of luminescence (Envision Reader). […] EC50 values were calculated by non-linear regression using sigmoid concentration-response with variable slope.
The same assays were run in the presence of 100% plasma with no additional buffer constituents.
On the technique in general: In a reporter assay the amount or activity of a reporter protein is the signal.

Series [1] in a line: Solubility in 0.1 M phosphate buffer at pH 7. It counts as physicochemical. The settings on record: 0.1 M phosphate buffer at pH 7, 10 mg/mL final peptide concentration, shaking 2 hours at room temperature, peptides as TFA-salts; measured sample pH 6.5-7.0.
A further series concerns the target human GLP-1 receptor (human, UniProt P43220 24-463). Kind of series: cell-based or functional assay.
In the next series the target is T3, human GIP receptor (human, UniProt P48546 22-466).
T3 sequence (looked up): T1 sequence (P48546 22-466)
Kind of series: cell-based or functional assay.

Series [2] concerns the target T4, human neuropeptide Y2 receptor (human, UniProt P49146 1-381).
T4 sequence (looked up): T2 sequence (P49146 1-381)
Put plainly: cell-based or functional assay.

Where [3] appears, read: 0.5% human plasma, read-out: hNPY2R 0.5% hP.

Where two headings read alike, the source gives them in different places. *1 amine or outer side, *2 acyl side, *3 side chain or, on linkers, in order; H or OH if unused. Where no end group is shown, it is not given here. Side-chain parts run from the residue outwards. [ ]: non-standard residue; d: D form. The star is where a group is joined. C20 diacid = O=C(O)CCCCCCCCCCCCCCCCCCC(=O)*; γGlu = O=C(O)[C@H](CCC(=O)[*:2])N[*:1]; εLys = N[C@@H](CCCCN[*:1])C(=O)[*:2]; dOR = not defined here; Aib = CC(C)(N)C(=O)O

The solubility is the concentration that dissolves in the medium under given conditions. Take `CC[C@H](C)[C@H](NC(=O)[C@H](CO)NC(=O)[C@H](Cc1ccc(O)cc1)NC(=O)[C@H](CC(=O)O)NC(=O)[C@H](CO)NC(=O)[C@@H](NC(=O)[C@H](Cc1ccccc1)NC(=O)[C@@H](NC(=O)CNC(=O)[C@H](CCC(=O)O)NC(=O)C(C)(C)NC(=O)[C@@H](N)Cc1ccc(O)cc1)[C@@H](C)O)[C@@H](C)O)C(=O)N[C@@H](C)C(=O)N[C@@H](CC(C)C)C(=O)N[C@@H](CCC(=O)O)C(=O)N[C@@H](CCCCN)C(=O)N[C@@H](CCC(N)=O)C(=O)N[C@@H](C)C(=O)N[C@@H](CCC(N)=O)C(=O)NC(C)(C)C(=O)N[C@@H](C)C(=O)N[C@@H](Cc1ccccc1)C(=O)N[C@H](C(=O)N[C@@H](CCCNC(=N)N)C(=O)N[C@@H](Cc1c[nH]cn1)C(=O)N[C@@H](CC(C)C)C(=O)N[C@H](C(=O)N[C@@H](CC(N)=O)C(=O)N[C@@H](CCCCNC(=O)CC[C@H](NC(=O)CC[C@H](NC(=O)CC[C@H](NC(=O)CC[C@H](NC(=O)CC[C@H](NC(=O)CC[C@H](NC(=O)CCCCCCCCCCCCCCCCCCC(=O)O)C(=O)O)C(=O)O)C(=O)O)C(=O)O)C(=O)O)C(=O)O)C(=O)NC(C)(C)C(=O)N[C@H](C(=O)N[C@@H](CCCNC(=N)N)C(=O)N[C@@H](CCC(N)=O)C(=O)N[C@@H](CCCNC(=N)N)C(=O)N[C@@H](Cc1ccc(O)cc1)C(N)=O)[C@@H](C)O)[C@@H](C)CC)C(C)C` [Compound 29, Y-Aib-E-G-T-F-T-S-D-Y-S-I-A-L-E-K-Q-A-Q-Aib-A-F-V-R-H-L-I-N-K(1,3)-Aib-T-R-Q-R-Y-NH2.C20DA-gGlu-gGlu-gGlu-gGlu-gGlu-gGlu(1,2)]: the EC50 on hGIPR came to 0.8 nM; on hNPY2R (setting [3]), 41.3 nM. In addition, in series [1], the solubility at 2 h was 10000 µg/mL.

At hNPY2R (hNPY2R 100% hP (nM), 100% human plasma), `CC[C@H](C)[C@H](NC(=O)[C@H](CO)NC(=O)[C@H](Cc1ccc(O)cc1)NC(=O)[C@H](CC(=O)O)NC(=O)[C@H](CO)NC(=O)[C@@H](NC(=O)[C@H](Cc1ccccc1)NC(=O)[C@@H](NC(=O)CNC(=O)[C@H](CCC(=O)O)NC(=O)C(C)(C)NC(=O)[C@@H](N)Cc1ccc(O)cc1)[C@@H](C)O)[C@@H](C)O)C(=O)NC(C)(C)C(=O)N[C@@H](CC(C)C)C(=O)N[C@@H](CCC(=O)O)C(=O)N[C@@H](CCCCN)C(=O)N[C@@H](CCC(N)=O)C(=O)N[C@@H](C)C(=O)N[C@@H](CCC(N)=O)C(=O)NC(C)(C)C(=O)N[C@@H](C)C(=O)N[C@@H](Cc1ccccc1)C(=O)N[C@H](C(=O)N[C@@H](CCCNC(=N)N)C(=O)N[C@@H](Cc1c[nH]cn1)C(=O)N[C@@H](CC(C)C)C(=O)N[C@@H](Cc1ccc(O)cc1)C(=O)N[C@@H](CC(N)=O)C(=O)N[C@@H](CCCCNC(=O)[C@@H](N)CCCCNC(=O)CC[C@H](NC(=O)CC[C@H](NC(=O)CC[C@H](NC(=O)CC[C@H](NC(=O)CC[C@H](NC(=O)CC[C@H](NC(=O)CCCCCCCCCCCCCCCCC(=O)O)C(=O)O)C(=O)O)C(=O)O)C(=O)O)C(=O)O)C(=O)O)C(=O)NC(C)(C)C(=O)N[C@H](C(=O)N[C@@H](CCCNC(=N)N)C(=O)N[C@@H](CCC(N)=O)C(=O)N[C@@H](CCCNC(=N)N)C(=O)N[C@@H](Cc1ccc(O)cc1)C(N)=O)[C@@H](C)O)C(C)C` [Compound 58, Y-Aib-E-G-T-F-T-S-D-Y-S-I-Aib-L-E-K-Q-A-Q-Aib-A-F-V-R-H-L-Y-N-K(1,3)-Aib-T-R-Q-R-Y-NH2.C18DA-gGlu-gGlu-gGlu-gGlu-gGlu-gGlu-eLys(1,2)] showed an EC50 of 40 nM. In series [1], the solubility at 2 h turned out to be 3300 µg/mL.

Take `CC[C@H](C)[C@H](NC(=O)[C@H](CC(C)C)NC(=O)[C@H](Cc1c[nH]cn1)NC(=O)[C@H](CCCNC(=N)N)NC(=O)[C@@H](NC(=O)[C@H](Cc1ccccc1)NC(=O)[C@H](C)NC(=O)C(C)(C)NC(=O)[C@H](CCC(N)=O)NC(=O)[C@H](C)NC(=O)[C@H](CCC(N)=O)NC(=O)[C@H](CCCNC(=N)N)NC(=O)[C@H](CCC(=O)O)NC(=O)[C@H](CC(C)C)NC(=O)C(C)(C)NC(=O)[C@@H](NC(=O)[C@H](CO)NC(=O)[C@H](Cc1ccc(O)cc1)NC(=O)[C@H](CC(=O)O)NC(=O)[C@H](CO)NC(=O)[C@@H](NC(=O)[C@H](Cc1ccccc1)NC(=O)[C@@H](NC(=O)CNC(=O)[C@H](CCC(=O)O)NC(=O)C(C)(C)NC(=O)[C@@H](N)Cc1ccc(O)cc1)[C@@H](C)O)[C@@H](C)O)[C@@H](C)CC)C(C)C)C(=O)N[C@@H](CC(N)=O)C(=O)N[C@@H](CCCCNC(=O)[C@@H](N)CCCCNC(=O)CC[C@H](NC(=O)CC[C@H](NC(=O)CC[C@H](NC(=O)CC[C@H](NC(=O)CC[C@H](NC(=O)CC[C@H](NC(=O)CCCCCCCCCCCCCCCCCCC(=O)O)C(=O)O)C(=O)O)C(=O)O)C(=O)O)C(=O)O)C(=O)O)C(=O)NC(C)(C)C(=O)N[C@H](C(=O)N[C@@H](CCCNC(=N)N)C(=O)N[C@@H](CCC(N)=O)C(=O)N[C@@H](CCCNC(=N)N)C(=O)N[C@@H](Cc1ccc(O)cc1)C(N)=O)[C@@H](C)O` [Compound 171, Y-Aib-E-G-T-F-T-S-D-Y-S-I-Aib-L-E-R-Q-A-Q-Aib-A-F-V-R-H-L-I-N-K(1,3)-Aib-T-R-Q-R-Y-NH2.C20DA-gGlu-gGlu-gGlu-gGlu-gGlu-gGlu-eLys(1,2)]: the figures for the EC50 on hGIPR and at hNPY2R (setting [3]) were 0.4 nM and 9.9 nM, respectively.

B1: Compound 14 (peptide)
peptide: YXEGTFTSDYSIXLEKQAQXEFVRHLINKXTRQRY
modifications: Aib at 2, 13, 20, 30; Lys29 epsilon-amino acylated with C18DA-gGlu-gGlu-gGlu-gGlu-gGlu-AHX; C-terminal amide
As for B1, the entries for the “EC50, CreLuc reporter, 0.5% hP” value (with human GLP-1 receptor; with human GIP receptor; in series [2]) were 0.3 nM, 0.1 nM and 16.8 nM, respectively. Also, the “EC50, CreLuc reporter, 100% hP” value in series [2] amounted to 388 nM.

B2: Compound 16 (peptide)
peptide: Y[Aib]EGTFTSDYSI[Aib]LDKQAQ[Aib]AFVRHLINK([εLys-γGlu-γGlu-γGlu-γGlu-γGlu-γGlu-γGlu-C20 diacid])[Aib]TRQ[dOR]Y-NH2
modifications: reading uncertain
Regarding B2, the “EC50, CreLuc reporter, 0.5% hP” value with human GLP-1 receptor turned out to be 0.7 nM; with human GIP receptor it was 0.5 nM. For the same molecule, the “EC50, CreLuc reporter, 100% hP” value with human GLP-1 receptor is 1.8 nM; with human GIP receptor, 2 nM; in series [2] it was 59.1 nM.

The values are drawn from patent publication US20250382344A1, “Soluble GLP1/GIP/NPY2 Receptor Triple Agonists” (Boehringer Ingelheim International GmH, priority 2024, published 2025).
